The source of these data is article PMC11194072, “Cdc13 exhibits dynamic DNA strand exchange in the presence of telomeric DNA”.

In general, IC50 refers to the concentration needed to halve the response being measured.

Data set [1] deals with T1, RPA heterotrimer (Rfa1-3) (Saccharomyces cerevisiae, UniProt P22336;P26754;P26755 1-621;1-273;1-122). Nature of the data set: EMSA; 2 nM fork; 25 mM HEPES pH 8.0, 5% glycerol, 50 mM NaOAc, 150 mM NaCl, 7.5 mM MgCl2, 0.01% Tween 20; EMSA/DDE at 30°C; BLI without glycerol at ~23°C. To be noted: protein: recombinant; tags: untagged; copies: 1;1;1; fork 1:2, 20 bp duplex, two 25-nt ssDNA arms.
T1 sequence (P22336 whole entry, chain 1 of 3): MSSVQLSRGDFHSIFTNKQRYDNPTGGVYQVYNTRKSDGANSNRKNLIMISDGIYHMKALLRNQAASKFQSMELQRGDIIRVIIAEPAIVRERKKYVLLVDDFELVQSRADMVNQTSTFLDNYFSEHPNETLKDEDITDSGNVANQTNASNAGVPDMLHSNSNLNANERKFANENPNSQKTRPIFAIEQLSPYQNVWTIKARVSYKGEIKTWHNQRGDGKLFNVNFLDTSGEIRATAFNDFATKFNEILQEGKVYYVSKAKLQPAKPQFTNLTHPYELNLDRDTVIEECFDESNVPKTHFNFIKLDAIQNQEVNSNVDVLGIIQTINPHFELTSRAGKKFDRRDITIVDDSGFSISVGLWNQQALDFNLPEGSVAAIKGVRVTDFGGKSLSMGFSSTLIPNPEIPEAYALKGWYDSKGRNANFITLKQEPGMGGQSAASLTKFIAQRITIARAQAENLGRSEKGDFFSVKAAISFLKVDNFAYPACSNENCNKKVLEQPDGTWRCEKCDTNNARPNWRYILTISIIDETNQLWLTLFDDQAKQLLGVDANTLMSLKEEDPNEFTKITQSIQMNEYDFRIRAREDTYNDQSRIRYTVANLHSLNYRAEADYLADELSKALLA
T1 sequence (P26754 whole entry, chain 2 of 3): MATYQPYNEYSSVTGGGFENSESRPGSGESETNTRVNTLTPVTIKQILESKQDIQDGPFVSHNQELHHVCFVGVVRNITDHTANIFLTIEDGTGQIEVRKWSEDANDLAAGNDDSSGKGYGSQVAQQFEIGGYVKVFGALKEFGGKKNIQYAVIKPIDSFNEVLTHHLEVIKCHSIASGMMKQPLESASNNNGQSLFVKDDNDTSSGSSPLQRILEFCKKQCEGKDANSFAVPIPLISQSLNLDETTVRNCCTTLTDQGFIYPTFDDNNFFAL
T1 sequence (P26755 whole entry, chain 3 of 3): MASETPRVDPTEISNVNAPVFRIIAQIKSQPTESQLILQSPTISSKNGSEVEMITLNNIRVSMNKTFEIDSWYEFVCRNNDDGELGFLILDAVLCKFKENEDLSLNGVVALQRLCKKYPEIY

Data set [2] concerns the target T2, Cdc13 full-length (Sf9) (Saccharomyces cerevisiae, UniProt P32797 1-924).
T2 sequence: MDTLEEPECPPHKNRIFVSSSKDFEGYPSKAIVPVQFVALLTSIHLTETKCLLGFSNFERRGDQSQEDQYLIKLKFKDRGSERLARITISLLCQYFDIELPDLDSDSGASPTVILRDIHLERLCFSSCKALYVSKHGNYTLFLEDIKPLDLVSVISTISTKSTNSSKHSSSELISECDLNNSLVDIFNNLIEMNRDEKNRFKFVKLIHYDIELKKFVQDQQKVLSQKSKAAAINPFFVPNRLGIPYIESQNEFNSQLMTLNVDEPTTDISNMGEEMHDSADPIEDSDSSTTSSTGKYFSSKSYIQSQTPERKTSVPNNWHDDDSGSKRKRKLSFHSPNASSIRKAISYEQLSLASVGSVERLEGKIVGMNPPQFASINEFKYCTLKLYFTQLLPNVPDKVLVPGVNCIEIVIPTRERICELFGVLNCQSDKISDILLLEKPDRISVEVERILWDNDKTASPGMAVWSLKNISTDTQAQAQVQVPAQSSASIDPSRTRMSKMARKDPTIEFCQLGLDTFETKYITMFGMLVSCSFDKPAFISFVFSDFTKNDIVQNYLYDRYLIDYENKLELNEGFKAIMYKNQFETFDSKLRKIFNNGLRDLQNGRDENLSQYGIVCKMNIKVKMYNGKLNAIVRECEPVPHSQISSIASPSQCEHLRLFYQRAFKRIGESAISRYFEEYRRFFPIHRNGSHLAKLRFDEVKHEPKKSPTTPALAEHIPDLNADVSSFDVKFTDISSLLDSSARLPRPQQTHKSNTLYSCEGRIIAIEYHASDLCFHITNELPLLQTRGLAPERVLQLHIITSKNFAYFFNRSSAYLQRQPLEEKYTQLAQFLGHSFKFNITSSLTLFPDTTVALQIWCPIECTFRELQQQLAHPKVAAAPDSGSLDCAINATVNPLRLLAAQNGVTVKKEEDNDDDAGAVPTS
The description is as above. Particulars: protein: recombinant; tags: N-terminal SUMO-His6 tag, C-terminal FLAG tag; chain copies: 2; fork 1:2, 20 bp duplex, two 25-nt ssDNA arms.

Data set [3] concerns the target T1, RPA heterotrimer (Rfa1-3). Nature of the data set: EMSA; 2 nM probe; 25 mM HEPES pH 8.0, 5% glycerol, 50 mM NaOAc, 150 mM NaCl, 7.5 mM MgCl2, 0.01% Tween 20; EMSA/DDE at 30°C; BLI without glycerol at ~23°C. To be noted: protein: recombinant, tags: untagged, copies: 1;1;1, single strand.
The next data set deals with T3, Cdc13 OB1 (Saccharomyces cerevisiae, UniProt P32797 1-230).
T3 sequence: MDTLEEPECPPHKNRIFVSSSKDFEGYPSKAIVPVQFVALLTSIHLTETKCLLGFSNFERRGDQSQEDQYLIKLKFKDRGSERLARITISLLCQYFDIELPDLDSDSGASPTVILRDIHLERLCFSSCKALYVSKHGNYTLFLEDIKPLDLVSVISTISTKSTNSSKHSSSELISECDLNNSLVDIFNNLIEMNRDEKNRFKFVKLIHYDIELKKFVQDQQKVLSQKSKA
Nature of the data set: EMSA; 7.8-1000 nM OB1; 25 mM HEPES pH 8.0, 5% glycerol, 50 mM NaOAc, 150 mM NaCl, 7.5 mM MgCl2, 0.01% Tween 20; EMSA/DDE at 30°C; BLI without glycerol at ~23°C. To be noted: protein: recombinant; tags: N-terminal His6-SUMO, C-terminal 3xFLAG; chain copies: 2; label: 5' IRDye700 or IRDye800; single strand. (In general: Mobility shift assays separate free from complexed probe on a gel.)

Data set [4] concerns the target T2, Cdc13 full-length (Sf9). Nature of the data set: EMSA; 2 nM probe; near probe concentration, not a reliable Kd; 25 mM HEPES pH 8.0, 5% glycerol, 50 mM NaOAc, 150 mM NaCl, 7.5 mM MgCl2, 0.01% Tween 20; EMSA/DDE at 30°C; BLI without glycerol at ~23°C. To be noted: protein: recombinant; tags: N-terminal SUMO-His6 tag, C-terminal FLAG tag; chain copies: 2; label: 5' IRDye700 or IRDye800; single strand.

Data set [5] addresses T1, RPA heterotrimer (Rfa1-3). Nature of the data set: competition; EC50; prebound labelled Tel30G; 25 mM HEPES pH 8.0, 5% glycerol, 50 mM NaOAc, 150 mM NaCl, 7.5 mM MgCl2, 0.01% Tween 20; EMSA/DDE at 30°C; BLI without glycerol at ~23°C. Particulars: protein: recombinant; tags: untagged; copies: 1;1;1; single strand.
The target of data set [6] is T2, Cdc13 full-length (Sf9). Nature of the data set: competition; EC50; prebound IR700-Tel30G 2 nM; 25 mM HEPES pH 8.0, 5% glycerol, 50 mM NaOAc, 150 mM NaCl, 7.5 mM MgCl2, 0.01% Tween 20; EMSA/DDE at 30°C; BLI without glycerol at ~23°C. Particulars: protein: recombinant; tags: N-terminal SUMO-His6 tag, C-terminal FLAG tag; chain copies: 2; single strand.
In data set [7] the target is T1, RPA heterotrimer (Rfa1-3). Nature of the data set: competition; EC50; prebound labelled Poly(dT)30; 25 mM HEPES pH 8.0, 5% glycerol, 50 mM NaOAc, 150 mM NaCl, 7.5 mM MgCl2, 0.01% Tween 20; EMSA/DDE at 30°C; BLI without glycerol at ~23°C. To be noted: protein: recombinant; tags: untagged; copies: 1;1;1; single strand.
The next data set concerns the target T4, Cdc13 OB3 (DBD) (Saccharomyces cerevisiae, UniProt P32797 497-694).
T4 sequence: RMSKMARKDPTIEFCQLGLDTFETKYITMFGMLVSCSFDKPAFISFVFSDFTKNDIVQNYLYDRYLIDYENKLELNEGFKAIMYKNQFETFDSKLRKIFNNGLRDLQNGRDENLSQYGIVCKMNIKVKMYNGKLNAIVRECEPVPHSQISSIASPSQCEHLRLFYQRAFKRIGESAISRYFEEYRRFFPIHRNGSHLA
Nature of the data set: EMSA; 7.5 nM OB3, 2 nM IR700-Tel11G; complex stable to 0.4-50 nM unlabelled Tel11G; 25 mM HEPES pH 8.0, 5% glycerol, 50 mM NaOAc, 150 mM NaCl, 7.5 mM MgCl2, 0.01% Tween 20; EMSA/DDE at 30°C; BLI without glycerol at ~23°C. To be noted: protein: recombinant; tags: N-terminal His6; label: none, or 5' IRDye700; single strand.

The target of data set [8] is T5, Cdc13 full-length (E. coli) (Saccharomyces cerevisiae, UniProt P32797 1-924).
T5 sequence: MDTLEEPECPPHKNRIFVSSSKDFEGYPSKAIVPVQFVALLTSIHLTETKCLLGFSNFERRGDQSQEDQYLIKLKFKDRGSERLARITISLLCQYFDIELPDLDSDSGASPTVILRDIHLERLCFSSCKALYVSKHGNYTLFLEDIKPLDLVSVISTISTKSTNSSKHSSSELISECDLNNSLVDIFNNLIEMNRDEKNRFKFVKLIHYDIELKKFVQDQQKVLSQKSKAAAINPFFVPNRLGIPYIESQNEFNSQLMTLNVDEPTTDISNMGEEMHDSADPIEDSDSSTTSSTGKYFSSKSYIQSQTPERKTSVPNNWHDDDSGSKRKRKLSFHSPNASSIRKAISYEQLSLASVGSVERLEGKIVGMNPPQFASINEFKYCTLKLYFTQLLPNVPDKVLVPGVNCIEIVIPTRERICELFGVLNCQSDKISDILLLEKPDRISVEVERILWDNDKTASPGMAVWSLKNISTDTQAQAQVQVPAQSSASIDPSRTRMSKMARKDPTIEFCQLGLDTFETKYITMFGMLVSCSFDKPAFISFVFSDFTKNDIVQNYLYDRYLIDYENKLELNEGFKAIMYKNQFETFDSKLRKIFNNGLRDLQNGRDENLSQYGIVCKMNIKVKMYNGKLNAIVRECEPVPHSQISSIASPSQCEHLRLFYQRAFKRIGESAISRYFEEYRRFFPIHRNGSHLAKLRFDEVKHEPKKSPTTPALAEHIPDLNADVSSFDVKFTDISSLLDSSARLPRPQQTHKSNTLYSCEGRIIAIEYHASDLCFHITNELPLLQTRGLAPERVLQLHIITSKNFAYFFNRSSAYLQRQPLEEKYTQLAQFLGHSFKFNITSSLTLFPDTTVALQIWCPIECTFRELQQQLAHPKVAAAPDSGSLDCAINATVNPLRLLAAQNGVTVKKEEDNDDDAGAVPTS
Nature of the data set: competition; prebound IR700-Tel11G, unlabelled Tel11G competes; EC50 only in figure; 25 mM HEPES pH 8.0, 5% glycerol, 50 mM NaOAc, 150 mM NaCl, 7.5 mM MgCl2, 0.01% Tween 20; EMSA/DDE at 30°C; BLI without glycerol at ~23°C. Particulars: protein: recombinant; tags: N-terminal His6-SUMO, C-terminal 3xFLAG; chain copies: 2; label: none, or 5' IRDye700; single strand.

In data set [9] the target is T2, Cdc13 full-length (Sf9). Described as above. Particulars: protein: recombinant; tags: N-terminal SUMO-His6 tag, C-terminal FLAG tag; chain copies: 2; label: none, or 5' IRDye700; single strand.
Data set [10] deals with T2, Cdc13 full-length (Sf9). Nature of the data set: EMSA; IR700-Tel50G prebound; 25 mM HEPES pH 8.0, 5% glycerol, 50 mM NaOAc, 150 mM NaCl, 7.5 mM MgCl2, 0.01% Tween 20; EMSA/DDE at 30°C; BLI without glycerol at ~23°C. Particulars: protein: recombinant; tags: N-terminal SUMO-His6 tag, C-terminal FLAG tag; chain copies: 2; label: 5' IRDye700; single strand.
The target of data set [11] is T2, Cdc13 full-length (Sf9). Nature of the data set: EMSA; 2 nM probe; 25 mM HEPES pH 8.0, 5% glycerol, 50 mM NaOAc, 150 mM NaCl, 7.5 mM MgCl2, 0.01% Tween 20; EMSA/DDE at 30°C; BLI without glycerol at ~23°C. To be noted: protein: recombinant; tags: N-terminal SUMO-His6 tag, C-terminal FLAG tag; chain copies: 2; label: none, or 5' IRDye700/800; single strand.
The target of data set [12] is T1, RPA heterotrimer (Rfa1-3). Nature of the data set: competition; EC50; prebound labelled Poly(dT)30; text also gives 15 nM; 25 mM HEPES pH 8.0, 5% glycerol, 50 mM NaOAc, 150 mM NaCl, 7.5 mM MgCl2, 0.01% Tween 20; EMSA/DDE at 30°C; BLI without glycerol at ~23°C. Particulars: protein: recombinant; tags: untagged; copies: 1;1;1; label: none, or 5' IRDye700/800; single strand.

B1: Tel25G fork (MB1169/MB1170) (mixed)
DNA 1: GGTGTGGTGTGGGTGTGGTGTGGGTGTGTCACTCACATAGCGTTC
DNA 2: GAACGCTATGTGAGTGACACTGGGTGTGGTGTGGGTGTGGTGTGG
Take B1: the “apparent K (half saturation)” value in data set [1] was 2.5 ± 0.6 nM; with Cdc13 full-length (Sf9) [2], 3.3 ± 0.5 nM.

B2: Tel30G labelled (MB1930 IR700 / MB1981 IR800) (ssDNA)
DNA: CGCCATGCTGATCCGTGTGGTGTGTGTGGG
For the molecule B2, the “apparent K (half saturation)” value in data set [3] (label: 5' IRDye700 or IRDye800) turned out to be 2.4 ± 0.5 nM; with Cdc13 OB1, 830 nM; with Cdc13 full-length (Sf9) [4], 3.7 ± 0.3 nM.

B3: Tel30G unlabelled (MB915) (ssDNA)
DNA: GTGTGGGTGTGGTGTGGGTGTGGTGTGGGT
For the molecule B3, the IC50 in data set [5] worked out at 5.44 nM; with Cdc13 full-length (Sf9) [6], 0.89 nM; in data set [7], 5.1 nM.

B4: Tel50G unlabelled (MB1117) (ssDNA)
DNA: GTGTGGGTGTGGTGTGGGTGTGGTGTGGGTGTGTGGGTGTGGTGTGGGTG
In the case of B4, the IC50 with Cdc13 full-length (Sf9) [6] was 0.96 nM.

B5: Tel11G (MB1983 / MB2018 IR700) (ssDNA)
DNA: GTGTGGGTGTG
Consider B5, for which the binding result (with Cdc13 OB3 (DBD); in data set [8]; with Cdc13 full-length (Sf9) [9]) was “binds” each time.

B6: IR700-Tel50G (MB1931) (ssDNA)
DNA: GTGTGGGTGTGGTGTGGGTGTGGTGTGGGTGTGTGGTGTGGTGTGTGTG
Take B6: the binding result with Cdc13 full-length (Sf9) [10] was “binds”.

B7: Poly(dT)30 (MB464 / MB1755 IR700 / MB1982 IR800) (ssDNA)
DNA: TTTTTTTTTTTTTTTTTTTTTTTTTTTTTT
With B7, the “apparent K (half saturation)” value in data set [3] (label: none, or 5' IRDye700/800) came to 7 ± 0.5 nM; with Cdc13 full-length (Sf9) [11], 26 ± 3 nM. Further, in data set [12], the IC50 worked out at 15.1 nM.
